Blank lines part the entries; values can stand above or below the molecule they belong to.
Legend:
[1] = test system: Pab1 (Saccharomyces cerevisiae); experiment: EMSA; conditions: EMSA: native 8% PAGE in THEM buffer (34 mM Tris base, 57 mM Hepes, 0.1 mM EDTA, 2.5 mM MgCl2); binding buffer salt, pH and temperature not given in the …
[2] = test system: Sbp1 (Saccharomyces cerevisiae); experiment: EMSA; conditions: Hill coefficient 2.1 +/- 0.1; EMSA: native 8% PAGE in THEM buffer (34 mM Tris base, 57 mM Hepes, 0.1 mM EDTA, 2.5 mM MgCl2); binding buffer salt, pH and temperature not given in the …
[3] = test system: Sbp1RGG (Saccharomyces cerevisiae); experiment: EMSA; conditions: EMSA: native 8% PAGE in THEM buffer (34 mM Tris base, 57 mM Hepes, 0.1 mM EDTA, 2.5 mM MgCl2); binding buffer salt, pH and temperature not given in the …
[4] = test system: Sbp1RRM1 (Saccharomyces cerevisiae); experiment: EMSA; conditions: EMSA: native 8% PAGE in THEM buffer (34 mM Tris base, 57 mM Hepes, 0.1 mM EDTA, 2.5 mM MgCl2); binding buffer salt, pH and temperature not given in the …
[5] = test system: Sbp1RRM2 (Saccharomyces cerevisiae); experiment: EMSA; conditions: EMSA: native 8% PAGE in THEM buffer (34 mM Tris base, 57 mM Hepes, 0.1 mM EDTA, 2.5 mM MgCl2); binding buffer salt, pH and temperature not given in the …
[6] = molecular target: T1, C-terminal TAP-tagged eIF4G1 (S. cerevisiae, UniProt P39935 1-952); experiment: pull-down; IgG-pulldown: eIF4G1-TAP with purified Pab1 and Sbp1 (or Sbp1^m) in the presence of 10x 5′UTR_Pab1 RNA; conditions: both partners purified
T1 construct: eIF4G1, translation initiation factor of S. cerevisiae; the TAP tag was inserted at the end of the eIF4G1 gene in its chromosome locus; also called eIF4G1-TAP; source: RNase A and 1 M KCl wash to remove endogenous RNAs
T1 sequence (looked up): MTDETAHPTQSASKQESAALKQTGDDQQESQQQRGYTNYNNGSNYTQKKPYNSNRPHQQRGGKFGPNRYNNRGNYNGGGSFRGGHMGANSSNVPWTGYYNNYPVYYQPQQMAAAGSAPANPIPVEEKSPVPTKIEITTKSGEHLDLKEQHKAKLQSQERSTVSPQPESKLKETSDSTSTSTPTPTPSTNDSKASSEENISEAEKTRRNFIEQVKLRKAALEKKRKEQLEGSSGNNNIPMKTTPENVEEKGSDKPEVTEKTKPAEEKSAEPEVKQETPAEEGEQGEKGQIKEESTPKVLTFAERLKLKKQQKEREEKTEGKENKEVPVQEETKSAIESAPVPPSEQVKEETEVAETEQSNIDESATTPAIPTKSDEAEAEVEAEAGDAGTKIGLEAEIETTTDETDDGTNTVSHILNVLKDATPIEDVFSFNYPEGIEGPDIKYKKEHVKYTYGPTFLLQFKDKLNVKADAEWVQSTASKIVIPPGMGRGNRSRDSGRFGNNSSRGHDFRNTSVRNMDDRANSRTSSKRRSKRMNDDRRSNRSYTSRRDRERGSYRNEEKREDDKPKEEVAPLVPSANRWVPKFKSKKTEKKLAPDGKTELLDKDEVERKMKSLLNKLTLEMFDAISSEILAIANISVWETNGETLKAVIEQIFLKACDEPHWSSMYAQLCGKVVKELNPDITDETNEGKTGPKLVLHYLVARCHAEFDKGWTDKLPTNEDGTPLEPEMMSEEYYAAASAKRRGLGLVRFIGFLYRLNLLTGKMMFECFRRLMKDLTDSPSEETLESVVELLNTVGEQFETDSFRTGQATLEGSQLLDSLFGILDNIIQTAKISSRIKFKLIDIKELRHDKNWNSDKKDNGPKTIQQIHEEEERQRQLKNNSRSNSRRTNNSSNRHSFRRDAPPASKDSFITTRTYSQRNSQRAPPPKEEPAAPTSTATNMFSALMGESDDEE

[7] = molecular target: Pab1 (purified, as added in the IgG-pulldown and EMSA) (S. cerevisiae) (UniProt P04147)

Molecule: 5'UTRPab1
- Kd [1]: 31.2 nM
- Kd [2]: 26.5 nM
- Kd [3]: 2700 nM
- Kd [4]: 1100 nM
- Kd [5]: 900 nM

- binding result [6]: binds
B1: Pab1 (purified, as added in the IgG-pulldown and EMSA) (natural protein, S. cerevisiae, UniProt P04147 1-577, looked up)
chain: MADITDKTAEQLENLNIQDDQKQAATGSESQSVENSSASLYVGDLEPSVSEAHLYDIFSPIGSVSSIRVCRDAITKTSLGYAYVNFNDHEAGRKAIEQLNYTPIKGRLCRIMWSQRDPSLRKKGSGNIFIKNLHPDIDNKALYDTFSVFGDILSSKIATDENGKSKGFGFVHFEEEGAAKEAIDALNGMLLNGQEIYVAPHLSRKERDSQLEETKAHYTNLYVKNINSETTDEQFQELFAKFGPIVSASLEKDADGKLKGFGFVNYEKHEDAVKAVEALNDSELNGEKLYVGRAQKKNERMHVLKKQYEAYRLEKMAKYQGVNLFVKNLDDSVDDEKLEEEFAPYGTITSAKVMRTENGKSKGFGFVCFSTPEEATKAITEKNQQIVAGKPLYVAIAQRKDVRRSQLAQQIQARNQMRYQQATAAAAAAAAGMPGQFMPPMFYGVMPPRGVPFNGPNPQQMNPMGGMPKNGMPPQFRNGPVYGVPPQGGFPRNANDNNQFYQQKQRQALGEQLYKKVSAKTSNEEAAGKITGMILDLPPQEVFPLLESDELFEQHYKEASAAYESFKKEQEQQTEQA
notes: it may be the same molecule as m1

- cap-dependent translation initiation activity of the 5′UTR Pab1 luciferase reporter in yeast cell extract with an increasing amount of Sbp1 [7]: 20 to 60 % decrease
B2: Sbp1 (natural protein)
chain: MSAEIEEATNAVNNLSINDSEQQPRAPTHKTVIDPEDTIFIGNVAHECTEDDLKQLFVEEFGDEVSVEIPIKEHTDGHIPASKHALVKFPTKIDFDNIKENYDTKVVKDREIHIKRARTPGQMQRGGFRGRGGFRGRGGFRGGFRGGYRGGFRGRGNFRGRGGARGGFNGQKREKIPLDQMERSKDTLYINNVPFKATKEEVAEFFGTDADSISLPMRKMRDQHTGRIFTSDSANRGMAFVTFSGENVDIEAKAEEFKGKVFGDRELTVDVAVIRPENDEEEIEQETGSEEKQE

Reference: paper PMC5733569, “Sbp1 modulates the translation of Pab1 mRNA in a poly(A)- and RGG-dependent manner” (RNA, 2018)
